Reference: the DeepSol protein solubility set

Assay: soluble on expression in E. coli; label from the status in PepcDB or PDB records

| Sequence | soluble on expression in E. coli |
| --- | --- |
| SGSQAGSFRKASPQTPNIDENEKRIKRLEKLKRDLQNIKNERGILQGILAKYKDLNDRTNFETFMLEMQHNQMMTDLKRMSQDISEALYKCQHLTKENQLYCCRNCHLLIESNLIQHKVRMLWKENRQLLRKQIALEECNIKTKILCKEGSQKIKDEYSRQAAGKQIIVVPGSKEEAAMSNPCA | soluble |
| MKFFLLKKFSEFLNAQTHFSLKRLNASSFLLETFSKEKHAFVVDLSAPYIGLSKKPPESVLKNTLALDFCLNKFTRNAKILQANIIDNDRILEINGAKDLAYKSENFILRLEMIPKKANLMILDKEKCVIEAFRFNDRVAKNDILGALPPNIYEHQEEDLDFKGLLDILEKDFLFYQHKELEHKKNQIIKRLNAQKERLKEKLEKLEDPKNLQLEAKELQTQASLLLTYQHLIHKHESRVVLKDFEDKERAIEIDKSMPLNAFINKKFTLSKKKKQKSQFLYLEEENLKEKIAFKENQINYVKGAQEESVLEMFMPSKNSKIKRPMSGYEVLYYKDFKIGLGKNQKENIKLLQDARANDLWMHVRNIPGSHLIVFCQKNAPKDDVIMELAKMLIKMQKDAFNSYEIDYTQRKFVKIIKGANVIYSKYRTISLKDT | not soluble |
| TNLISVNSRSYRLSSAPTIVICVDGCEQEYINQAIQAGQAPFLAELTGFGTVLTGDCVVPSFTNPNNLSIVTGAPPSVHGICGNFFFDQETQEEVLMNDAKYLRAPTILAEMAKAGQLVAVVTAKDKLRNLLGHQLKGICFSAEKADQVNLEEHGVENILARVGMPVPSVYSADLSEFVFAAGLSLLTNERPDFMYLSTTDYVQHKHAPGTPEANAFYAMMDSYFKRYHEQGAIVAITADHGMNAKTDAIGRPNILFLQDLLDAQYGAQRTRVLLPITDPYVVHHGALGSYATVYLRDAVPQRDAIDFLAGIAGVEAVLTRSQACQRFELPEDRIGDLVVLGERLTVLGSAADKHDLSGLTVPLRSHGGVSEQKVPLIFNRKLVGLDSPGRLRNFDIIDLALNHLA | soluble |
| MAHHHHHHMSGPPKQCYYELLQVDRKASSEEIRQAYKKQALIHHPDKNYSNEQSTIEKFKDIQNAYAVLSDPDERAWYDAHRESILNGEDADSSQHEVNLYCYFTSRCFDGFDDNEGGFYSVYRKVFDQLIEDESEYSSNAKTWPRFGDSATSWSSVSKFYSHWRNFSSCKTFAWKDEYKVNEIPDRASRRMAERINQKLRTSAKKEYVQIVQGLTRFVHRRDPRVAAELTRQEEERRLKEEEREKRELEWAKNRREANEKLWAEAAEKEAEEERARIERGEAPDSCTLDLLYEKQRQCEEARKVKGGTNCGFAMLEDEHEDNLPEKKRSCPACKKQFKTDAQYKEHVNSSKHKAKLRQLSAKGVDIETLMNEEKDISTCV | soluble |
| MGSDKIHHHHHHMKMETGKLLMELSNLDGPSGYETNVVSYIKSVIEPFVDEAKTTRHGSLIGYKKGKGIGKLAFFAHVDEIGFVVSKVEGQFARLEPVGGVDPKVVYASKVRIYTKNGIERGVIGMLAPHLQDSESRKKVLTYDEIFVDLSLCERDVRVGDIAVIDQTAFETNGKVVGKALDNRASCGVLVKVLEFLKRYDHPWDVYVVFSVQEETGCLGALTGAYEINPDAAIVMDVTFASEPPFSDHIELGKGPVIGLGPVVDRNLVQKIIEIAKKHNVSLQEEAVGGRSGTETDFVQLVRNGVRTSLISIPLKYMHTPVEMVDPRDVEELARLLSLVAVELEV | not soluble |
| MSLNEVHSIHGHTLLLITKPSLQATALLQHLKQSLAITGKLHNIQRSLDDISSGSIILLDMMEADKKLIHYWQDTLSRKNNNIKILLLNTPEDYPYRDIENWPHINGVFYAMEDQERVVNGLQGVLRGECYFTQKLASYLITHSGNYRYNSTESALLTHREKEILNKLRIGASNNEIARSLFISENTVKTHLYNLFKKIAVKNRTQAVSWANDNLREGHHHHHH | soluble |
| MNEFDRVRDYLTDLQDRICAAVEAIDGKARFAEDLWQRAEGGGGRTRILRDGAVFEQAGIGFSDVSGARLPPSASAHRPELAGATWRACGVSLVFHPHNPHIPTTHANVRYFRAERDGEMVAAWFGGGFDLTPFYPVDEDVMHWHRTAQALCAPFGEERYAAHKRWCDEYFFLRHRNETRGVGGLFFDDLGQDFERDFAYQRAVGDGFLDAYLPIVERRKDTPYGEAERAFQLYRRGRYVEFNLVYDRGTLFGLQSGGRAESILMSLPPQVRWEYGFQPQPGSAEARLADYLIPRDWLGLEHHHHHH | soluble |
| MGSDKIHHHHHHMRPLIFAYANAAASIAADSWNLVMGEDNPFCRHEYLLSLEQSLSACDATGWQACHLCVFDASGMGLTQEQNTDGIVSTRDAVHFIDLPLLAVMPLYQKSHSYGEYVFDWAWAQAYEHHGLAYYPKLLNAIPFTPVLGRRIGLSPRLSADEAQQLSALVFTCLNRQLMDAHASISSWHCLFVSPSQQSLFEPPLSVKQQTLQHLPHNPSLRRLSTQFHWYNRGYTSFEAFLAALNSRKRKNIVKERAQLQTHGLRFEFVAGNVITSQQWQRFIECYQLTYLKRSGHRGYLTPVFFQMIAERLAEQIVLLVVSDATGEMIAGALYFTGRNELGQRCLFGRYWGSTLELEGLHFEACYYQGIEYCIAQDIEVFDAGAQGEHKVLRGFEPVAIYSYHNIAHPEFKLAIAHFTEEEAVQMEVYMQQMREVLPYKKAP | not soluble |
| MTNGQSPAGGVQSVERAFDILEIMASAGGSIGVSELADLAGLPLPTIHRLIRTLMNRGYVRQLPTRRYALGPKLIRLGESATQLIGAWSRPHLSELVRGTGETANMAVLDGTMAVYVAQVPSEHAMRMFTEVGRRVYPHCTGVGKAILMQLSNDAVRSLVGRTGMTTYTENSLTDPDMLIADLELSRNRGFAIDEGEQEIGVRCFSVPVPNAPTPTAISVSGPAARVTLESADHIVPLLKRVAKELGTEFDKNAAL | not soluble |
| MDQSIRHLLGNLSLFTPPEEAAVYAEQHAVNKNEPLYFVVFPQADTALSELLVAGYQKLLENNFWGLTNSTQEAKDLMSRYGNTGLELYAHSRGSMTLGNMLYSFQQQGVHGIANENTTINLYGPAFNVLVASDLLGYVSDGKQTTVGFDGHRYDFVSRWIGGNSYTYKTIPSDSNAWKEWWRMFTDPDNPHTCLGDANAICNTLYGSSHLKQKP | not soluble |
| MGSDKIHHHHHHVAASPLRGRTPHRRGPRACRRGPLPRVGAGGLRQMTATEAYLQKGWLRFAAEESIRDWAAHAQRCAETATADPAHAKWLDCEGTWFIGVDALPNDPDGRLPSGPPLEGAALDFIRAHFGEIPALHRAQLSVIYPGYPRPRRGESDAAFGYRCKRDGAHVDGIKIYGTARRRRVEEPHAWVLGLPLNKTSKNAAPLVVWEGSHLIMREAFRLAFEGIALEDWAHVDITDIYTAARREVFETCKRVEVHANPGEAYLMHRLCLHGVAPWADGASATDGAGRMIAYFRPEMPNWQAHWLSDL | not soluble |
| MGSDKIHHHHHHTEMEPKFTEPVNINGEDYYKALREYKKSDHPIVFGWYSEWTGTGTNMNNQLRGIPDSMDIVSLWGGAFNLTEAQKSDLKEVREKKGLRVLYCQHITDIGRSHTPASVENDFIVDGVQYNSKDEAMAAYWGWYGNYGDTSEEGQEKAIRKYARVIIDSINKYNYDGFDIDFEPNFGYSGNLSGNSDRMHIFLDELSKEFGPKSGTGRILMVDGEPQTLNKESGPLLDYYVVQAYYCRSDEGYSDALDGRFDRLLNKFGSIEDEATILSKTVWCEDFEKHKGDGGPEFTTRDGIVTYSLKGMAMYYRPGVDARIGGVGAYRFNLCRPVNDYFFMREVIQVLNPANH | not soluble |
| SLTTTEVVMENVTAFWEEGFGELFEKAKQNNNNRKTSNGDDSLFFSNFSLLGTPVLKDINFKIERGQLLAVAGSTGAGKTSLLMMIMGELEPSEGKIKHSGRISFCSQFSWIMPGTIKENIIFGVSYDEYRYRSVIKACQLEEDISKFAEKDNIVLGEGGITLSGGQRARISLARAVYKDADLYLLDSPFGYLDVLTEKEIFESCVCKLMANKTRILVTSKMEHLKKADKILILHEGSSYFYGTFLELYHYPADRFVAGFIGSPKMNFLPVKVTATAIDQVQVELPMPNRQQVWLPVESRDVQVGANMSLGIRPEHLLPSDIADVILEGEVQVVEQLGNETQIHIQIPSIRQNLVYRQNDVVLVEEGATFAIGLPPEDCHLFREDGTACRRLHKEPGV | soluble |
